Target: T1, human FLAG-tagged PORCN (isoform B) (Homo sapiens, PORCN isoform B (Q9H237-2), strain)
T1 chain: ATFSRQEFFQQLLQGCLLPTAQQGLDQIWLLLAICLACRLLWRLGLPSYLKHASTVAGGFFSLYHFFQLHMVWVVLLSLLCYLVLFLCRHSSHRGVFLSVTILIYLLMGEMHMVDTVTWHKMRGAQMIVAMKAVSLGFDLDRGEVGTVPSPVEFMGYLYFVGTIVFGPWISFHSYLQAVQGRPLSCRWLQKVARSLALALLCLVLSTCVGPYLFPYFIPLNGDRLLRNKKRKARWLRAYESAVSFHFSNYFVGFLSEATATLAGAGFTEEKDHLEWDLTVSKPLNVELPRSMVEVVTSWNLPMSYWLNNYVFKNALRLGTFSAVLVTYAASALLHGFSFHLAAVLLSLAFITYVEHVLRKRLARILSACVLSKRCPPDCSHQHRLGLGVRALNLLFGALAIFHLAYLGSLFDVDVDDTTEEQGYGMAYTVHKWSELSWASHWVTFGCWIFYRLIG
Assay: SEC

binding result: binds
B1: Fab^2C11 (Fab, V domains shown)
VH: EIQLQQSGAELVKPGASVKMSCKVSGYSFTGYNMNWVKQSHGKSLEWIGNINPYYVSTNYNQKFTGKATFTVDRSSSTAYMQLDSLTSEDSAVYYCARSYGSSHTFAYWGQGTLVTVSS
VL: DIHMTQSPASLSAFVGETVTITCRTSENIFSYLAWYQQKQGKSPQLLVYNAKTLTSGVPSRFSGSGSGTQFSLKINSLQPEDFGSYYCQHHYGSPYTFGGGTKLEIK

Source: publication PMC9404457 (Nature, 2022)
